Measured values taken from patent publication US7033773B1, “Screening assays for G protein coupled receptor agonists and antagonists” (The General Hospital Corporation, priority 1997, dated 2006).

How the values were obtained:
human PTH/PTHrP receptor [1] = biological target: T1, human PTH/PTHrP receptor (Homo sapiens, UniProt Q03431); assay: Cellular cAMP accumulation in LLC-PK1 cells expressing human PTHR; type: cell-based; parameters: transfected with a full-length human PTH/PTHrP receptor cDNA; expressed in transfected cells; details: HKRK B28 cells; similar in HKRK B7
T1 sequence (Q03431 27-593): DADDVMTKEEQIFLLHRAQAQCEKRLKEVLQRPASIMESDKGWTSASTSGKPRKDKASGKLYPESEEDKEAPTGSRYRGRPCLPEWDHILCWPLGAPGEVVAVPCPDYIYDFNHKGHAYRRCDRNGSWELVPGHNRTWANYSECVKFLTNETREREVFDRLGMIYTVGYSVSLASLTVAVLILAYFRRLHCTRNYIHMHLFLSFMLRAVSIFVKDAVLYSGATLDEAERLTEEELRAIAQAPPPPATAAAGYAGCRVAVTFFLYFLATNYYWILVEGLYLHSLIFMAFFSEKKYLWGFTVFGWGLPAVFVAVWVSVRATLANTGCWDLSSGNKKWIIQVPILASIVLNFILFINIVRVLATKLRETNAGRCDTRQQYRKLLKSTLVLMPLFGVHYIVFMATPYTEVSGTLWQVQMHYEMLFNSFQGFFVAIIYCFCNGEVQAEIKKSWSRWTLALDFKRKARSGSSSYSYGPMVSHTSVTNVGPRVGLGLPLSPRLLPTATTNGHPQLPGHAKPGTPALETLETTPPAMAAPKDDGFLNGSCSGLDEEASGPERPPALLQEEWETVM
Method: Cells were seeded into 24-well plates at a density of 2.5×10^5 cells/well and cultured for a further 2 days before study. The cells were rinsed once with 0.5 ml of ice-cold Buffer B [10 mM HEPES (pH 7.4), 130 mM NaCl, 5 mM KCl, 1.2 mM CaCl2, 1 mM MgCl2, 1.2 mM Na2HPO^4 5 mM glucose, and 0.1% heat-inactivated BSA] supplemented with 1 mM isobtylmethylxanthine (IBMX), and placed on ice. Treatments were added to each well in 0.25 ml of IBMX-supplemented Buffer B, after which the plates were incubated at 37° C. for 15 min. The buffer then was rapidly aspirated, the plates were rapidly transferred onto liquid nitrogen, and the frozen monolayers were subsequently thawed directly into 0.5 ml of 50 mM HCl. The extracted cAMP then was measured using a commercial RIA kit (Dupont-New England Nuclear, Boston, Mass.). Results were expressed as fold-basal, where basal levels ranged between 38 and 128 pmol/mg protein/15 min. The basal level of cAMP accumulation in native LLC-PK1 cells was not consistently altered in subclones that expressed wild type PTH/PTHrp receptors.
Maximal PTH-dependent cAMP accumulation was assessed in the human PTHR-transfected LLC-PK1 subclones following incubation for 15 min with a high concentration (1000 nM) of hPTH(1-34) (Table 1). As reported previously for LLC-PK1 cells that stably expressed rat PTHRs (Guo, J., et al., Endocrinology 136:3884-3891 (1995)), the maximal adenylyl cyclase response was relatively independent of the surface density of human PTHRs above a relatively low threshold (relative to that required for PLC activation—see below). In the case of the human PTHR, however, this threshold for saturation of maximal AC activation appeared to lie between 120,000 and 280,000 (Table 1), which is at least 6 to 10-fold higher than that previously observed for the rat PTHR (Guo, J., et al., Endocrinology 136:3884-3891 (1995)).

human PTH/PTHrP receptor [2] = biological target: T1, human PTH/PTHrP receptor; assay: IP3 production (PLC activation) in LLC-PK1 cells expressing human PTHR; type: cell-based; parameters: transfected with a full-length human PTH/PTHrP receptor cDNA; expressed in transfected cells; details: for formation of IP3 (activation of phospholipase-C): peptide 1000 nM, mean±SEM
Method: Cells were seeded into 24-well plates at a density of 2.5×10^5 cells/well and cultured for a further 2 days before study. The cells were labeled at 37° C. for 16 h before assay with 3 uCi/ml of [^3H]myo-inositol in assay medium (serum- and inositol-free DMEM (GIBCO-BRL, Grand Island, N.Y.) supplemented with 0.1% BSA). After washing the cells with prewarmed assay medium containing 30 mM LiCl, they were incubated with 0.25 ml of assay medium containing 30 mM LiCl and stimulators (or vehicle) at 37° C. for various intervals(1-30 min). IP3 formation was arrested by aspiration and immediate addition of 0.5 ml of ice-cold 5% TCA. The acid extracts then were extracted twice with two volumes of water-saturated ether and adjusted to pH 7.4 with concentrated NaOH and Tris base (final concentration=10 mM) prior to chromatography on AG 1×8 anion-exchange columns (Bio-Rad, Richmond, Calif.), as previously described (Guo, J., et al., Endocrinology 136:3884-3891 (1995)). After eluting other fractions (free [^3H]myo-inositol, glycerophosphate inositol, IP1, and IP2), IP3 fractions were collected and their content of radioactivity was determined by liquid scintillation spectrometry (Beckman, model LS 6000IC).
HKRK B7 cells and HKRK B28 cells, previously loaded with [^3H]myo-inositol, were incubated with each peptide (1000 nM) for 30 min or 4 min, respectively. The formation of IP3 is expressed as a percentage of the amount measured in vehicle-treated controls. Values shown are means±SEM of triplicate determinations.

hPTH(1-31)
activation of AC (in words) (human PTH/PTHrP receptor [1]): indistinguishable from that to hPTH(1-34)
activation of PLC (in words) (human PTH/PTHrP receptor [2]; 1000 nM, HKRK B28 at 4 min and HKRK B7 at 30 min): stimulated PLC equivalently to hPTH(1-34)
formation of IP3 (activation of phospholipase-C) (human PTH/PTHrP receptor [2]; HKRK B7 cells, 30 min stimulation): 275 ± 21 percentage of vehicle-treated
formation of IP3 (activation of phospholipase-C) (human PTH/PTHrP receptor [2]; HKRK B28 cells, 4 min stimulation): 170 ± 14 percentage of vehicle-treated
